# ± gives the uncertainty stated by the source.
# B1: Gamma-crystallin C, residues 91 to 170; numbered along this chain, P07315 (parent)
# chain: RLYEREDHKGLMMELSEDCPSIQDRFHLSEIRSLHVLEGCWVLYELPNYRGRQYLLRPQEYRRCQDWGAMDAKAGSLRRV
# Variants of: B1
# Test: abundance fitness (aPCA) (normalised: wild type 0, dead -1); higher = more abundant; growth selection in yeast, the domain comes from the species named
# Conditions: Homo sapiens
row,Variant,abundance fitness
1,L34W,-0.486 ± 0.054
2,L34A,-0.064 ± 0.065
3,L34Q,-0.781 ± 0.45
4,L34S,-0.897 ± 0.13
5,L34V,-0.043 ± 0.064
6,L34E,-0.537 ± 0.12
7,L34G,-0.725 ± 0.077
8,L34C,-0.161 ± 0.08
9,L34T,-0.848 ± 0.26
10,L34I,0.056 ± 0.077
11,L34M,0.027 ± 0.093
12,L34F,-0.097 ± 0.097
13,L34Y,-0.572 ± 0.31
14,L34D,-0.579 ± 0.27
15,R32W,-0.631 ± 0.14
16,R32V,-0.808 ± 0.14
17,R32Y,-0.417 ± 0.21
18,S33V,-1.01 ± 0.26
19,S33D,-1.07 ± 0.4
20,S33W,-0.98 ± 0.25
21,S33Y,-0.424 ± 0.24
22,S33G,-0.872 ± 0.1
23,S33I,-0.492 ± 0.32
24,S33F,-0.99 ± 0.1

row,Variant,abundance fitness
1,S33Q,-1.03 ± 0.31
2,S33L,-0.865 ± 0.15
3,S33T,-1.04 ± 0.26
4,S33K,-0.957 ± 0.5
5,S33M,-0.673 ± 0.32
6,S33R,-0.9 ± 0.12
7,S33H,-0.933 ± 0.5
8,V36Q,-0.713 ± 0.23
9,V36S,-0.969 ± 0.35
10,V36N,-0.772 ± 0.3
11,V36M,-0.742 ± 0.27
12,V36A,-0.783 ± 0.17
13,V36I,-0.013 ± 0.089
14,V36G,-0.76 ± 0.095
15,V36Y,-0.947 ± 0.5
16,V36C,-0.836 ± 0.17
17,V36L,-0.632 ± 0.09
18,V36W,-0.788 ± 0.12
19,V36R,-1.08 ± 0.28
20,V36E,-0.88 ± 0.36
21,G39A,-0.56 ± 0.095
22,G39C,-0.536 ± 0.088
23,G39N,-0.65 ± 0.23
24,G39L,-0.89 ± 0.17

row,Variant,abundance fitness
1,G39V,-0.924 ± 0.16
2,G39H,-0.151 ± 0.14
3,G39F,-0.759 ± 0.082
4,G39P,-0.798 ± 0.31
5,G39Q,-0.853 ± 0.33
6,G39T,-0.892 ± 0.19
7,G39M,-0.93 ± 0.41
8,G39E,-0.186 ± 0.089
9,G39D,-0.298 ± 0.13
10,G39Y,-0.566 ± 0.43
11,G39W,-0.94 ± 0.25
12,H35K,-0.029 ± 0.1
13,H35A,-0.053 ± 0.057
14,H35V,0.036 ± 0.061
15,H35G,-0.845 ± 0.12
16,H35N,-0.09 ± 0.11
17,H35Y,-0.202 ± 0.14
18,H35M,-0.222 ± 0.087
19,H35E,0.139 ± 0.091
20,H35S,-0.05 ± 0.056
21,H35L,-0.15 ± 0.06
22,H35C,-0.206 ± 0.076
23,H35D,-0.107 ± 0.086
24,H35W,-0.354 ± 0.12

row,Variant,abundance fitness
1,H35T,0.081 ± 0.069
2,H35I,-0.004 ± 0.1
3,H35F,-0.325 ± 0.1
4,H35P,-0.789 ± 0.32
5,Y44R,-0.478 ± 0.09
6,Y44F,-0.069 ± 0.088
7,Y44N,-0.325 ± 0.13
8,Y44G,-0.608 ± 0.073
9,Y44W,-0.599 ± 0.081
10,Y44L,-0.648 ± 0.086
11,Y44V,-0.784 ± 0.13
12,Y44S,-0.568 ± 0.078
13,Y44Q,-0.567 ± 0.4
14,Y44A,-0.671 ± 0.18
15,Y44H,-0.306 ± 0.15
16,Y44T,-1.04 ± 0.24
17,Y44E,-0.957 ± 0.27
18,Y44P,-0.905 ± 0.21
19,L43P,-0.992 ± 0.4
20,L43E,-0.804 ± 0.16
21,L43Y,-0.224 ± 0.15
22,L43V,-0.81 ± 0.12
23,L43R,-1.01 ± 0.15
24,L43G,-0.721 ± 0.071

row,Variant,abundance fitness
1,L43H,-0.757 ± 0.29
2,L43I,-0.251 ± 0.16
3,L43F,-0.645 ± 0.19
4,L43A,-0.931 ± 0.24
5,L43S,-0.865 ± 0.2
6,L43Q,-0.606 ± 0.22
7,L43M,-0.099 ± 0.14
8,L43T,-0.674 ± 0.27
9,L43N,-0.673 ± 0.32
10,L43C,-0.701 ± 0.13
11,L37Q,-0.256 ± 0.13
12,L37S,-0.372 ± 0.079
13,L37F,-0.263 ± 0.099
14,L37P,-0.813 ± 0.2
15,L37H,-0.351 ± 0.12
16,L37T,-0.326 ± 0.11
17,L37Y,-0.3 ± 0.12
18,L37D,-0.254 ± 0.12
19,L37I,-0.062 ± 0.13
20,L37C,-0.578 ± 0.34
21,L37V,-0.033 ± 0.06
22,L37E,-0.481 ± 0.12
23,L37M,-0.158 ± 0.087
24,L37A,-0.553 ± 0.1

row,Variant,abundance fitness
1,L37N,-0.363 ± 0.14
2,L37W,-0.799 ± 0.15
3,L37K,-0.136 ± 0.16
4,C40Q,0.055 ± 0.1
5,C40V,0.002 ± 0.06
6,C40G,-0.186 ± 0.051
7,C40K,-0.202 ± 0.16
8,C40L,-0.042 ± 0.065
9,C40P,-0.446 ± 0.11
10,C40W,-0.103 ± 0.097
11,C40A,-0.025 ± 0.065
12,C40H,-0.09 ± 0.16
13,C40Y,-0.284 ± 0.091
14,C40I,-0.222 ± 0.2
15,C40N,0.119 ± 0.14
16,C40T,0.07 ± 0.086
17,C40D,0.058 ± 0.086
18,C40E,0.052 ± 0.081
19,C40R,-0.138 ± 0.072
20,C40S,0.041 ± 0.03
21,E45A,-0.191 ± 0.071
22,E45I,-0.762 ± 0.21
23,E45R,-0.437 ± 0.063
24,E45D,-0.265 ± 0.33

row,Variant,abundance fitness
1,E45H,-0.582 ± 0.19
2,E45P,-0.832 ± 0.16
3,E45L,-0.875 ± 0.14
4,E45M,-0.792 ± 0.28
5,E45G,-0.492 ± 0.065
6,E45N,-0.933 ± 0.5
7,E45Q,-0.211 ± 0.086
8,E45K,-0.465 ± 0.15
9,E38G,-0.186 ± 0.044
10,E38K,-0.083 ± 0.12
11,E38A,-0.059 ± 0.069
12,E38V,-0.222 ± 0.053
13,E38D,0.013 ± 0.069
14,E38P,-0.642 ± 0.12
15,E38Q,0.171 ± 0.13
16,E38I,-0.711 ± 0.25
17,E38S,-0.015 ± 0.044
18,E38C,-0.242 ± 0.077
19,E38N,0.102 ± 0.16
20,E38M,-0.222 ± 0.097
21,E38H,-0.119 ± 0.13
22,E38F,-0.216 ± 0.091
23,E38L,-0.379 ± 0.073
